Laboratory results: EP2500357A2 (Abbott Laboratories, dated 2012)
Each block holds one binder with its values, some of them ahead of it.

Assays:
mouse IL-1α = target: T1, mouse IL-1α (mouse, UniProt P01582 115-270); assay: cell-based or functional assay
T1 sequence (looked up): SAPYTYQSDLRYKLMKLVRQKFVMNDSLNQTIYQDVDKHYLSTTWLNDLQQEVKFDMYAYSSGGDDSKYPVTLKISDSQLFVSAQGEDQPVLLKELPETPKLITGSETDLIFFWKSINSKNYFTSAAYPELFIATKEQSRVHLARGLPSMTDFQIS

recombinant human IL-1α [1] = target: T2, recombinant human IL-1α (human, UniProt P01583 113-271); assay: SPR (Biacore), hIL-1α as 2nd antigen
T2 construct: also called rhIL-1α; hIL-1α
T2 sequence (looked up): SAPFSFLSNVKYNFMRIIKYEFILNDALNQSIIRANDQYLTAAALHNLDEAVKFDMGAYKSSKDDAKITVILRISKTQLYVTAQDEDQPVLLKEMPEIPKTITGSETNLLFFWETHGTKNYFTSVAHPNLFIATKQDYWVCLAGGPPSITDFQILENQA

recombinant human IL-1β [2] = target: T3, recombinant human IL-1β (human, UniProt P01584 117-269); assay: cell-based or functional assay
recombinant human IL-1α [3] = target: T2, recombinant human IL-1α; assay: cell-based or functional assay
recombinant human IL-1β [4] = target: T3, recombinant human IL-1β; assay: SPR (Biacore), hIL-1β as 1st antigen
recombinant human IL-1β [5] = target: T3, recombinant human IL-1β; assay: SPR (Biacore), hIL-1β as 2nd antigen
recombinant human IL-1α [6] = target: T2, recombinant human IL-1α; assay: SPR (Biacore), hIL-1α as 1st antigen
recombinant human IL-1β [7] = target: T3, recombinant human IL-1β; assay: cell-based or functional assay; remark: listed apart in the source
recombinant human IL-1α [8] = target: T2, recombinant human IL-1α; assay: cell-based or functional assay; remark: listed apart in the source
recombinant human IL-1β [9] = target: T3, recombinant human IL-1β; assay: cell-based or functional assay; remark: listed apart in the source
human IL-18 [10] = target: T4, human IL-18 (human, UniProt Q14116 37-193); assay: cell-based or functional assay
human IL-18 [11] = target: T4, human IL-18; assay: cell-based or functional assay; remark: listed apart in the source
human IL-12 [12] = target: T5, human IL-12 (human, UniProt P29459 23-219; P29460 23-328); assay: cell-based or functional assay
T5 sequence (looked up) 1: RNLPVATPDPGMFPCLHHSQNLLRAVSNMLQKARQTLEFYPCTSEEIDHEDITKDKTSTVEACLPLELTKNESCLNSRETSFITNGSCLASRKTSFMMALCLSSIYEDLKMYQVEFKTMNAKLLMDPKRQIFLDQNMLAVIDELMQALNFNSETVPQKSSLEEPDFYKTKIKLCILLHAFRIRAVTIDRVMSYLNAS
T5 sequence (looked up) 2: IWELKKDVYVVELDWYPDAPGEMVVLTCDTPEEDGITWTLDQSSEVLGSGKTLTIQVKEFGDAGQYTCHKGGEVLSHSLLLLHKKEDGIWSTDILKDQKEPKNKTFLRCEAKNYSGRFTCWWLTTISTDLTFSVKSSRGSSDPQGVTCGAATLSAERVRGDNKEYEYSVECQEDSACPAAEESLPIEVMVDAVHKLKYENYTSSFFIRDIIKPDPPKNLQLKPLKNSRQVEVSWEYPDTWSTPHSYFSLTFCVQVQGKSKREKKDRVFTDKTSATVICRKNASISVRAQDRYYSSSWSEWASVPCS

recombinant human IL-1β [13] = target: T3, recombinant human IL-1β; assay: cell-based or functional assay; remark: listed apart in the source
mouse IL-1β = mouse IL-1β (mouse, UniProt P10749 118-269); assay: cell-based or functional assay
human IL-12 [14] = target: T5, human IL-12; assay: cell-based or functional assay; remark: listed apart in the source

Sequence of mouse IL-1β (P10749 118-269 limits assumed): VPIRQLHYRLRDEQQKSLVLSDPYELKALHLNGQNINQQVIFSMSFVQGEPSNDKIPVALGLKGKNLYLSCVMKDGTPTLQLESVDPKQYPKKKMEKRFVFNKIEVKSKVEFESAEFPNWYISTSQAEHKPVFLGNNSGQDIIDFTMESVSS

B2: hIL-1a/bDVD1-Ig (bispecific antibody, human IgG1, kappa)
heavy: not shown
light: NIVLTQSPASLAVSLGQRATISCRASESVDSYGNSYMHWYQQKPGQPPKLLIYLASNLESGVPARFSGSGSRTDFTLTIDPVEADDAATYYCQQNNEDPFTFGSGTKLEIKRNIQMTQTTSSLSASLGDRVTISCRASQDISNCLNWYQQKPDGTVKLLIYYTSRLHSGVPSRFSGSGSGTDYSLTISNLEQEDIATYFCQQGKTLPYAFGGGTKLEINRTVAAPSVFIFPPSDEQLKSGTASVVCLLNNFYPREAKVQWKVDNALQSGNSQESVTEQDSKDSTYSLSSTLTLSKADYEKHKVYACEVTHQGLSSPVTKSFNRGEC
notes: No linker between the variable domains; also called hIL-1α/βDVD1-Ig
- Stoichiometry hIL-1α:DVD-Ig (recombinant human IL-1α [1]): 1.1
- Potency (IC50), MRC-5 bioassay (recombinant human IL-1β [2]): 3.1 nM
- Potency (IC50), MRC-5 bioassay (recombinant human IL-1α [3]): 2.3 nM
- Stoichiometry hIL-1β:DVD-Ig (recombinant human IL-1β [4]): 1.5
- Stoichiometry hIL-1β:DVD-Ig (recombinant human IL-1β [5]): 1
- Stoichiometry hIL-1α:DVD-Ig (recombinant human IL-1α [6]): 2.3
- dual-inhibition activity, IL-8 synthesis by MRC-5 cells with both IL-1α and IL-1β present (recombinant human IL-1β [7]): 2.2 nM
- dual-inhibition activity, IL-8 synthesis by MRC-5 cells with both IL-1α and IL-1β present (recombinant human IL-1α [8]): 2.2 nM
- neutralizing activity against hIL-1α relative to the chimeric Abs (recombinant human IL-1α [8]): 3 fold

B4: ABT325 (anti-human IL-18 mAb) (antibody, V domains shown)
VH: EVQLVQSGTEVKKPGESLKISCKGSGYTVTSYWIGWVRQMPGKGLEWMGFIYPGDSETRYSPTFQGQVTISADKSFNTAFLQWSSLKASDTAMYYCARVGSGWYPYTFDIWGQGTMVTVSS
VL: not shown
- IC50, KG-1 bioassay (IFN-γ production) (human IL-18 [10]): 0.3 nM
- Potency (IC50), KG-1 bioassay (IL-18) (human IL-18 [11]): 0.0687 nM

B5: DVD1812LL (anti-IL12/IL18 DVD-Ig) (bispecific antibody, human IgG1, kappa)
heavy: not shown
light: EIVMTQSPATLSVSPGERATLSCRASESISSNLAWYQQKPGQAPRLFIYTASTRATDIPARFSGSGSGTEFTLTISSLQSEDFAVYYCQQYNNWPSITFGQGTRLEIKRTVAAPSVFIFPPQSVLTQPPSVSGAPGQRVTISCSGSRSNIGSNTVKWYQQLPGTAPKLLIYYNDQRPSGVPDRFSGSKSGTSASLAITGLQAEDEADYYCQSYDRYTHPALLFGTGTKVTVLGTVAAPSVFIFPPSDEQLKSGTASVVCLLNNFYPREAKVQWKVDNALQSGNSQESVTEQDSKDSTYSLSSTLTLSKADYEKHKVYACEVTHQGLSSPVTKSFNRGEC
- Potency (IC50), KG-1 bioassay (IFN-γ production) (human IL-18 [10]): 0.078 nM
- Potency (IC50), IL-12-induced IFN-γ production by PHA blast cells (human IL-12 [12]): 0.118 nM

B6: DVD1812SL (anti-IL12/IL18 DVD-Ig) (bispecific antibody, human IgG1, kappa)
heavy: not shown
light: EIVMTQSPATLSVSPGERATLSCRASESISSNLAWYQQKPGQAPRLFIYTASTRATDIPARFSGSGSGTEFTLTISSLQSEDFAVYYCQQYNNWPSITFGQGTRLEIKRTVAAPQSVLTQPPSVSGAPGQRVTISCSGSRSNIGSNTVKWYQQLPGTAPKLLIYYNDQRPSGVPDRFSGSKSGTSASLAITGLQAEDEADYYCQSYDRYTHPALLFGTGTKVTVLGTVAAPSVFIFPPSDEQLKSGTASVVCLLNNFYPREAKVQWKVDNALQSGNSQESVTEQDSKDSTYSLSSTLTLSKADYEKHKVYACEVTHQGLSSPVTKSFNRGEC
- Potency (IC50), KG-1 bioassay (IFN-γ production) (human IL-18 [10]): 0.04 nM
- Potency (IC50), IL-12-induced IFN-γ production by PHA blast cells (human IL-12 [12]): 0.366 nM

B9: anti-IL-12 mAb 1D4.1 (antibody, V domains shown)
VH: EVTLRESGPALVKPTQTLTLTCTFSGFSLSKSVMGVSWIRQPPGKALEWLAHIYWDDDKYYNPSLKSRLTISKDTSKNQVVLTMTNMDPVDTATYYCARRGIRSAMDYWGQGTTVTVSS
VL: DIVMTQSPDSLAVSLGERATINCKASQSVSNDVAWYQQKPGQPPKLLIYYASNRYTGVPDRFSGSGSGTDFTLTISSLQAEDVAVYYCQQDYNSPWTFGGGTKVEIKR
- Potency (IC50), PBMC assay (IL-12) (human IL-12 [14]): 0.418 nM

B10: ABT874 (anti-human IL-12p40 mAb) (antibody, V domains shown)
VH: QVQLVESGGGVVQPGRSLRLSCAASGFTFSSYGMHWVRQAPGKGLEWVAFIRYDGSNKYYADSVKGRFTISRDNSKNTLYLQMNSLRAEDTAVYYCKTHGSHDNWGQGTMVTVSS
VL: QSVLTQPPSVSGAPGQRVTISCSGSRSNIGSNTVKWYQQLPGTAPKLLIYYNDQRPSGVPDRFSGSKSGTSASLAITGLQAEDEADYYCQSYDRYTHPALLFGTGTKVTVLG
- IC50, IL-12-induced IFN-γ production by PHA blast cells (human IL-12 [12]): 0.005 nM

B11: mIL-1α/β DVD-Ig (bispecific antibody, mouse IgG2a, kappa)
heavy: EVQLQQSGPELVKPGTSVKMSCKTSGYTFTSYVMHWVKQKPGQGLEWIGYIIPYNDNTKYNEKFKGKATLTSDKSSSTAYMELSSLTSEDSAVYYCARRNEYYGSSFFDYWGQGTTLTVSSAKTTAPSVYPLAPQVILKESGPGILQPSQTLSLTCSFSGFSLSTYGTAVNWIRQPSGKGLEWLAQIGSDDRKLYNPFLKSRITLSEDTSNSQVFLKITSVDTEDSATYYCANGVMEYWGLGTSVTVSSAKTTAPSVYPLAPVCGDTTGSSVTLGCLVKGYFPEPVTLTWNSGSLSSGVHTFPAVLQSDLYTLSSSVTVTSSTWPSQSITCNVAHPASSTKVDKKIEPRGPTIKPCPPCKCPAPNLLGGPSVFIFPPKIKDVLMISLSPIVTCVVVDVSEDDPDVQISWFVNNVEVHTAQTQTHREDYNSTLRVVSALPIQHQDWMSGKEFKCKVNNKDLPAPIERTISKPKGSVRAPQVYVLPPPEEEMTKKQVTLTCMVTDFMPEDIYVEWTNNGKTELNYKNTEPVLDSDGSYFMYSKLRVEKKNWVERNSYSCSVVHEGLHNHHTTKSFSRTPGK
light: DIQMTQSPASLSASVGETVTITCRGSGILHNYLVWYQQKQGKSPQLLVYSAKILADGVPSRFSGSGSGTQYSLKINSLQPEDFGSYYCQHFWSTPFTFGSGTKLEIKRADAAPTVSIFPPSIVMTQTPKFLLVSAGDRVTITCKASQSVNHDVAWYQQMPGQSPKLLIYFASNRYTGVPDRFTGSGYGTDFTFTISTVQAEDLAVYFCQQDYSSPYTFGGGTKLEIKRADAAPTVSIFPPSSEQLTSGGASVVCFLNNFYPKDINVKWKIDGSERQNGVLNSWTDQDSKDSTYSMSSTLTLTKDEYERHNSYTCEATHKTSTSPIVKSFNRNEC
- IC50, in vitro potency (assay not described) (mouse IL-1β): 0.8 nM
- IC50, in vitro potency (assay not described) (mouse IL-1α): 2 nM

Further lines, results first:

- IC50, in vitro potency (assay not described) (mouse IL-1α): 0.2 nM
B1: mouse anti-mouse IL-1α mAb 9H10 (antibody, V domains shown)
VH: QVILKESGPGILQPSQTLSLTCSFSGFSLSTYGTAVNWIRQPSGKGLEWLAQIGSDDRKLYNPFLKSRITLSEDTSNSQVFLKITSVDTEDSATYYCANGVMEYWGLGTSVTVSS
VL: SIVMTQTPKFLLVSAGDRVTITCKASQSVNHDVAWYQQMPGQSPKLLIYFASNRYTGVPDRFTGSGYGTDFTFTISTVQAEDLAVYFCQQDYSSPYTFGGGTKLEIKR

- Potency (IC50), MRC-5 bioassay (recombinant human IL-1β [2]): 0.6 nM
- IC50, inhibition of IL-8 production by MRC-5 cells (recombinant human IL-1β [9]): 0.6 nM
B3: murine anti-hIL-1β mAb 13F5.G5 (antibody, V domains shown)
VH: QVQLQQSGAELVRPGSSVKISCKASGYAFSSYWMNWVKQRPGQGLEWIGQIYPGDGDTNYNGKFKGKATLTADKSSSTSYMQLSGLTSEDSAMYFCVRFPTGNDYYAMDYWGQGTSVTVSS
VL: NIVLTQSPASLAVSLGQRATISCRASESVDSYGNSYMHWYQQKPGQPPKLLIYLASNLESGVPARFSGSGSRTDFTLTIDPVEADDAATYYCQQNNEDPFTFGSGTKLEIKR

- IC50, MRC-5 bioassay (recombinant human IL-1β [13]): 0.4 nM
- IC50, inhibition of IL-8 production by MRC-5 cells (recombinant human IL-1β [9]): 0.32 nM
B7: murine anti-hIL-1β mAb 6B12.4F6 (antibody, V domains shown)
VH: EVQLQQSGPELVKTGTSVKISCKASGYSFTGYYMHWVRQSHGKSLEWIGYISCYNGFTSYNPKFKGKATFTVDTSSSTAYIQFSRLTSEDSAVYYCARSDYYGTNDYWGQGTTLTVSS
VL: QIVLTQSPAIMSASPGEKVTITCSASSSVSYMHWFQQKPGASPKLWIYSTSNLASGVPARFSGSGSGTSYSLTVSRMEAEDAATYYCQQRSTYPYTFGGGTKLEIKR

- IC50, in vitro potency (assay not described) (mouse IL-1β): 0.37 nM
B8: mouse anti-mouse IL-1β mAb 10G11 (antibody, V domains shown)
VH: EVQLQQSGPELVKPGTSVKMSCKTSGYTFTSYVMHWVKQKPGQGLEWIGYIIPYNDNTKYNEKFKGKATLTSDKSSSTAYMELSSLTSEDSAVYYCARRNEYYGSSFFDYWGQGTTLTVSS
VL: DIQMTQSPASLSASVGETVTITCRGSGILHNYLVWYQQKQGKSPQLLVYSAKILADGVPSRFSGSGSGTQYSLKINSLQPEDFGSYYCQHFWSTPFTFGSGTKLEIKR
